Experimental findings from patent US20200199225A1 (AVA LIFESCIENCE, published 2020) are described below.

For this test, the target named is T1, CLL subset 2 typical BCR (HC/LC typical for the CLL subset 2) expressed on the surface of TKO cells.
T1 construct: also called CLL-Subset2 BCR; BCR of Interest
The experiment in a line: FACS on TKO cells expressing the CLL receptor. From the text:
Monoclonal antibodies were produced using the standard procedure in mice and the subsequent generation of hybridoma cells. The screening for positive clones was not performed by ELISA as usual. Since the target structure is a membrane-bound receptor, it is of central importance to validate the binding of the potential antibodies in a cellular system, i.e. while largely preserving the cell physiological states native to this cell type. First, groups of pooled supernatants were examined for binding events using FACS analysis. For this purpose different CLL-Subset 2 BCR variants were expressed on the surface of a cell line (TKO), which cannot express BCR itself. […] Subsequently, the supernatants of the individual hybridoma clones were examined in more detail with regard to their binding in order to identify highly specific clones with a high affinity.
For the screening procedure, different vectors were used in the previous transformation for the following heavy chain (HC) and light chain (LC) combinations of the corresponding CLL-BCRs, these combinations being used on the surface of the BCR reconstitution system: [0074] Control (transformation vector without BCR) (see FIG. 1 A) [0075] Vector with HC/LC typical for the CLL subset 2 (see FIG. 1 B) [0076] Vector with a non-CLL subset 2 HC/a LC typical for the CLL subset 2 (without target motif; epitope) (see FIG. 1 C) [0077] […]

T1 sequence (heavy, as listed by the source, chain 1 of 2): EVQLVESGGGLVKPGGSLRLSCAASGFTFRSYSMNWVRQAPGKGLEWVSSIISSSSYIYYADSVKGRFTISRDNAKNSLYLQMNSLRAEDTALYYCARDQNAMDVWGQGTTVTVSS
T1 sequence (light, as listed by the source, chain 2 of 2): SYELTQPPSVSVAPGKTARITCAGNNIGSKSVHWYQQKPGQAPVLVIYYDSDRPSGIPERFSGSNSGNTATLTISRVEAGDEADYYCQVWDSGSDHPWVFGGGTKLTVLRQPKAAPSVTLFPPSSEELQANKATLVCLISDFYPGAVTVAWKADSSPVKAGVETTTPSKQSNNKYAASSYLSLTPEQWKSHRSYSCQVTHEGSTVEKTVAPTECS

B1: AVA-mAb01 (antibody, V domains shown)
VH: QVQLQQSGPGLVQPSQSLSITCTVSGFSLTSYGIHWVRQSPGKGLEWLGVIWRGGGTDSNAAFMSRLSITKDNSKSQVFFKMNSLQADDTAIYYCARSRYDEEESMNYWGQGTSVTVSS
VL: QIVLTQSPASLSASVGETVTITCRASGNIHSYLAWYQQKQGKSPQLLVYNAKTLADGVPSRFSGSGSGTQYSLKINSLQPEDFGSYYCQHFWNTPPTFGAGTKLELK
notes: Murine monoclonal antibody from a hybridoma, tested as hybridoma supernatant and detected with a fluorescence-labeled anti-mouse-IgG antibody; the constant regions are not; also called specific monoclonal antibody against Subset-2; the selected antibody
For B1, the binding result is “binds”.
